Assay: soluble on expression in E. coli; label from the status in PepcDB or PDB records

Sequence | soluble on expression in E. coli
MILMESLSVSGTETVSVPQDWNVMDVIGAKSWYVVSEKEPSWEEIIKGKTVEAVDEPPSRFEVISTSPLVLKKDTKYYIYNSTLKKWLVLEYEEPQSSRKLVMNGQGKVTLLLRSSGSWNVRYYLFEDTLTGNAFLSVSGVESADVFLISRPAGEASIWKGMYLSASPSREMPEEHESEEVKVYHLGKVKDLDKSPVVNLIETNLFNVNEYYSYSFAVNDSIFDYQKTTFTRSFMTPVDLPGGTVSIFSNISGVDIMIGETSIPDTPKNSLLELPVTDSWDVRVKGEILDERNYKDTYEYERTWRVTVQNLNETESKVRINIYGNMMRLLRSSIKPLKETSDQIVFELIVPPNSEKEFEFKVRSGWLEHHHHHH | not soluble
MKNVKTIAAAVVLATMTFGASAAEYVSPSQAQNLEKAGVVTATAQDLSSLQSQLAAKAEKAGAKAYTITSATGNDQLRGSAVIFN | not soluble
MAGDPMNIDYSVLKKYPLCDRCFGRLYGKLIRSSNFDRGHALKLAKAIELEEDLRTALEKMNETPENSEVNPTDLEKLEEIKELMYALHKTGTSGIKLDLIDDIEKYETKFKNEAEYEKNEECDELCPWCKGIFEPENIEKVAENVVEALSEYEFDSFLVGTKLPKRFKELENEIETPFMESIRQEFGRELGKVVVPLIKRRVDKENPDIVVMVNPYNQKVTLQVNPVFIKGRYKKLVRGIPQSHWDCRSCRGKGCEKCNFTGKQYMTSVEEIIAEPFMDVMKGSSEALHGAGREDIDVRMLGHGRPFVIEIKEPKIRKVNLEELASKVNESGNVEIINVEYGVKKDVHFFKNEPHKKTYLAHVECEEKVSNEEVAELVKKLEDLTIDQRTPDRVSHRRADLVRVRKVYKAWPHMIDDYNFELKIFCDGGLYIKELINSDEGRTTPSVSELLNKKCICKFLDVLDVHDYEDAENILEHHHHHH | soluble
MAISQFFEKIDRYYQKNLKEYEFSEEYSDISFNTFLYLRKINSLGNPTMSELAKAMEVSKPSASNMVSKMTEKGLVETGASPKDGRVCLLGLTDKGKKVIEIENGADMKFFEKIREILDEEELEVLERIFEKIAAGLEGEKHDR | not soluble
MGRARDAILDALENLTAEELKKFKLQAATHQGSGAAPAGIQAPPQSAAKPGLHFIDQHRAALIARVTNVEWLLDALYGKVLTDEQYQAVRAEPTNPSKMRKLFSFTPAWNWTCKDLLLQALRESQSYLVEDLERS | soluble
MGSDKIHHHHHHMTQTDSLPGVQATVQDMGERARRAARVLRSLPTGRKVQALRALAAELRAREAGILAANAQDVQAAEAAGLPAPLVDRLRLSAGALAAIARDVEAVAALPDPVGEQTDEKTLPSGIRVSQRRVPLGVLGVIYESRPNVTVDVAALALMSGNAAILRGGKETVNSNAALEDAIHAALNREGLPADAVQVIRDPDRARMLELLRLDESVDAIIPRGGAGLHRFCVENATVPVIVGGIGVVHIYLDGSFVQTPQDVQIAAALIRNAKTQKPSACNALDTLLIDRAALAALPDVVRPLLESGVEVRADAEAQAALAGAGLNVTSAQLGDYGTEFLALVASLRTVSGLDEALDFIAERGGHTDVILTRDPAQAERFVQDVDSAAVMVNVSPRFNDGGQLGLGAEVAISTQKLHARGPMGLRELTTSKWVVRGEGQVRD | not soluble
HARKSLTVLVVGESARAENFGILGYGRNTTPNLNKENGLVAFTDVYSCGTETAVSVPCMFSNMGRKNYNATKARNQEGLLDVLKHAGIEVAWRDNQSGCKGTCDRVTFQDVSNLTDPLLCNSHECRDEILLQNLQGFIDSLDKDTVLVLHQMGSHGPEYYKRYPKEFEKFTPVCESNALNNCSRDSIVNAYDNTLLYTDHVLSTLIDLLRSNQAKVDTAMVYLSDHGESLGEYNLFLHGTPYVLAPDQQKHVPMLIWLSDTYQKSFAVTPDCLAKQRNAPLSQDNLFHSMLGLLKVDTKVYDPSLDMFAGCRSELAAADKQ | not soluble
MSLGLVVLKFGGTSVSTVDKIGKTADQAIYEKKQGNKVIVVVSAMGKSTDKLVAMAEEISEAPDKREMDMLLSTGEQITIALLAMTLKEKGHDAISYTGWQAGIETEAVHSNARIADIDSARIESALDAGQIVVVAGFQGFTTDGEITTLGRGGSDTTAVAIASALNAEKCAICTDVVGVFTTDPRYVKKAQKLEQITYDEMLELANLGAGVLHPRSVEYAKNFRIPLEVRASHEQVPGTMIEEDLTMENTKVVRGIAFEDQITRVTIHWKQKEAMRVSKVFTKLAENNIDVDIIIQGITGLGHGNLSFTIKTSALLATLAVLEESKELLQIEKLESEQELAKVSIVGSGMVSNPGVAAQMFEALTENNIPIKMISTSEIKVSTVVPARKMVEAAQVLHDQFELDKEGHHHHHH | not soluble
MSLEPDPDYVEPRLEGPQKQAASEIIEDVRKGGFHVSLIDGVTGSGKTEVYFEAVAETLRQGKQVLILLPEIALTAAFLERFQDRFGAKPAEWHSDLSPRMREKVWRQAVTGEIKVVAGARSALFLPFDNLGLIIVDEEHDPAYKQEDRVFYNARDMAVVRARIAEFPVVLVSATPSVESQVNGSSGRYNTIHLHTRFGDAAMPDLHLVDMRRHPPERGGFLSPVLLRGIGKTIEKGEQSLLFLNRRGYAPLTLCRVCGHRFQCPQCSSWLVEHRFRNQLQCHQCGHNEPTPDHCPECGTFDHLVACGPGVERIAEEVEKHFPEARTIVLSSDLMGVKRLRLELEAIVKGEADIVIGTQLVAKGHNFPLMTLVGIVDADLGLANGDPRAAERTFQLLSQVTGRAGRTGLKSHGLLQTYQPQHPVMQAIVSGDASAFYEREIVEREKAVLPPFGRLASIIVSADTRAEAETHARGLRAAAPQVTGIMLLGPAEAPLALIRGRHRFRLLVHGRRNSDMQSFLRTLLASGPKERGSVHVQLDIDPQSFLEGHHHHHH | soluble
MMYPYVRLFMEMRRARRLDPLPVLGTHRSSHRCLPWDLAPWRELNNGRTLTLFDLGRAPLLVRTGMQRICSEKGWGMTVAGSSVRYRRRVVLMERLEMVSRCLGWDGRFFYMEQSLWRKGDCTSHMLLRAATTTGSGIVPPAEVAAALGAGESPPLPDWAQAWIEADALRPWPPAALEHHHHHH | not soluble
MGSDKIHHHHHHFDEETAFQSPTLVYVNTVASLYNNMFKIMGNDRHVYDLNTFSSDEAMLPCRIGDWEDGGLWQNIFLHRWGTMNDLTKNSWDFLYEQIGKCNQSVDKLQAFAEEQPDVEYFKVYLEEVRAVRAFFYYELLDLFARVPLVTSSTTPMSEVKQSERSVVFNFVRSELEEALPYLSDNRSNQKGEYYGRITKPVAYMILAKLALNAEVYADDNWTDGNRPAGKNIKFTVDGKEMNAWEATIAYVDKLEALGYKLQGNFSENFAVANETSVENIFTVPMDPVAYPDAKDYNLVRTRHYDHATAYGQSGWNGSCATVKAMNVFKFGTADEDPRCKLTYFTGEVTGPDGKTIYTEWDGQKVPLKYEPNAPKVYMDASDGLLVKTAGARMAKYEFDQNAQDGGNLHGNDCVIFRFADALLMKAEAKIRLGQNGDDEVNQVRNRVGAKPLQNVTLDTLLDERMLELAWEGVRRQDLIRFGKFTEATVDRYVGVKHFASSLDYQEDKTGYTTVFSIYADILSLNPNLTQNPGY | not soluble
MGSDKIHHHHHHMMKTDYVFCVDSDGCAMDTMTYKHKLFFGPLAADVFDVKDREPFLAEWNRVNLYSRERGINRFVGLVKGLDFAGVTGIDNLKNWVATTDSLSNASLERLIEETPSKDLELALEWSTQVNQAIKHYSGPVLAFIGVHKGLEKLSQLGKVYVVSSANKEAVEEEWTDQGLLDFVTELYCQDRGKKEDVIKILIEEGYCPDKIMMIGDSPGDLKAAELNGVHFYPILVGQEMQSWADLTETIADEFAHQAFTGEKETELIQAFWNNLDD | not soluble
MSLKNIVFDFGGVIVDIDRDKAVQAFIKLGLADADTRLDKYHQTGIFQELEEGKLSADEFRKQLGDLCGRELTMEETKQAWLGFFNEVDLRKLDYILGLRKSYHVYLLSNTNPFVMSWACSPEFSSEGKPLNDYCDKLYLSYQLGHTKPAPEIFDFMIKDSHVIPSETLFVDDGSSNIHIGKELGFETFQPENGADWRQELTVILNSEGHHHHHH | soluble
MSKLDLGRVDLLSMLGNSSSAGVDTAKGVIPFSTSGATWAVPRLSEDGITSHFLRRRGYVTMTQGGSRDQNAAVRKILSLIIAYDIQTQACFFISNEESMRITMAETMGVKDRPNARTNSWAEVSDSDINRGIAKALKEGNLTLDENQKDGFMKLVHAFVADILAQSGHYKPVTSVTYFSAPIDMESDYLDPFSIAIIRDVLDDSPFSELRYDARAMSELEDRDVPITRFSRVMAQMGNAMVRNIMVLNEAAQRKLRGLAVVGEIVHGRVRAPVRYLNDSFIQTLRSNINFHLLTRTTPERWAQSWIQAFGSLKGWVDAINGIADATTEEEKKKLAMQTSMDLELLSDLTPLIRDAATSVEKFVTFAPLSFYQGLGSVTQIRALDSSTNLAAVIVRYAAKEINLIPAYQSFQVPTVDVGVKKTAIMDQRLSLQLPEFSEDQFFGMLEQRMQNMSDSEVAELVDRIAKGETPFGDVVKQLPGTSTLLVTNGYYMGGLLTNEDKIIPGDASVPALLYMQAASFASSVRFPPGEYPVFHHESSNGDVRLTDQVSADAQLSHSAVETANPLNFLVACNVSVHTPSIAIDIIEPMPDLTRRGTTEYVHKGEIKVAAIPSLPPKSADRKAQVSRETAKFERVLYKARKGGAQVAAPIDLESLFGIAVNLAVPTVKHVYSPDSKTKLALDIIKGLESEGDKAAATRLLMTLARAYTGTYSSLGLRRRDEITGIAAQPSDVAMQEFALQSGVQTLKAVAKHTGIMEVATIEMVEEKVRSLDDNRFYEIAAEVVLRALKGM | not soluble
MGSDKIHHHHHHMIKVAVVGTVGIPACYGGFESLVENLTSYTSNKIEYDVFCSSKSYTNKRSHYNGAQLSYIPLNANGVQSIFYDIISLIFCIFKKPDVTLVLGVSGCLFLPVYRLLSKSKIVTNIDGLEWKRDKWSKWAKKFLKFSEYMAVKFSDVVITDNKAIGDYVNAEYSKDNVVIAYGGDHAIIEGKHVGPEQDYYLSLCRIEPENNVQMILNAFSKSQHKLKFVGNWNSSEFGRKLKREFSDQPNIDIVDPIYDVNQLFKLRSECKGYVHGHSAGGTNPSLVEAMHFEKTIFAFDCNFNRYTTEDKAVYFSSSKELNDKLTEVTKDELAVISTDMKQIADRRYTWKVINHMYEETYL | not soluble
MSLIGLDLDSAPDLIQSVPAPRLRRQVWLRTASGQRLAYATSWWEASHVDEYLQNRSLPIWASLARLRTELYRDVRGIYYGNSEALQLGFGVDGPFWGRHYLFWHHGQPLTLIYEVFSPYLTKYLGPMQLSSRNGKILEHHHHHH | not soluble
MGSDKIHHHHHHMRRGGTAFSSKCKICGKAAPFSLPVCPECSKKDAALEIATSLHPPLYEKRVEGCNLCSNKCSGIALCGKPEYGKLTYYEDPLPTNCCNAWFCNGSKLTGTNLAVFYYGCNFDCLYCQNWTHKYFEDVRTVSVDELLRAAKNFRVRCVCHFGGSPEPQLPFALKFSRKALEFKEDLMICWEWNGAGNTSLALKAAELSSRSGGTVKFDLKAWNPNLHVLLTGRDNERVKDNFERIYDKHGEVLSATTLLVPYYVDEEEVEGIARFISSFSTEIPYSLLVFHPDYRMSDFPVTPVQQVKRCYKAAKKHLKNVNIGNLHLLGL | not soluble
MGGLFTGIALDSAGHDVTIAEQSAGDLRSRGGGIVAQQSIRQFLSRHDIVDPANITTRASERRFLTADGDVRTSTPDSMVFTSWDAVYRQLRAAFPDDRYHTGQTVTGVRATDGTVTFSDGDRTTADLVVAADGGQSTARAQLFPDADPEFADYVAWRGVVSEAELSDAVIDAFDGRFTFYQGEQMLILAYFIPGEDGNTAPGDRRLNWVWYDTLSGRERETIFTDTTGTSQQFSVSPGQLRDPVESHQRERAAETLPPVFTDLVATTAAPFVQAIYDLQSPQMTVDRVCLVGDAAFVARPHTAAGTSKAASDAVELKAALDRHSSLGGALASWDDARTDYGARLVAQGKRMGDERLSLGSLEHHHHHH | not soluble

From the DeepSol protein solubility set
